Molecular target: T1, shGARP-TGFβ (human)
T1 construct: also called immobilized shGARP-TGFβ
Assay: BIACOR analysis (SPR), immobilized shGARP-TGFβ

T1 sequence (Q14392 20-627): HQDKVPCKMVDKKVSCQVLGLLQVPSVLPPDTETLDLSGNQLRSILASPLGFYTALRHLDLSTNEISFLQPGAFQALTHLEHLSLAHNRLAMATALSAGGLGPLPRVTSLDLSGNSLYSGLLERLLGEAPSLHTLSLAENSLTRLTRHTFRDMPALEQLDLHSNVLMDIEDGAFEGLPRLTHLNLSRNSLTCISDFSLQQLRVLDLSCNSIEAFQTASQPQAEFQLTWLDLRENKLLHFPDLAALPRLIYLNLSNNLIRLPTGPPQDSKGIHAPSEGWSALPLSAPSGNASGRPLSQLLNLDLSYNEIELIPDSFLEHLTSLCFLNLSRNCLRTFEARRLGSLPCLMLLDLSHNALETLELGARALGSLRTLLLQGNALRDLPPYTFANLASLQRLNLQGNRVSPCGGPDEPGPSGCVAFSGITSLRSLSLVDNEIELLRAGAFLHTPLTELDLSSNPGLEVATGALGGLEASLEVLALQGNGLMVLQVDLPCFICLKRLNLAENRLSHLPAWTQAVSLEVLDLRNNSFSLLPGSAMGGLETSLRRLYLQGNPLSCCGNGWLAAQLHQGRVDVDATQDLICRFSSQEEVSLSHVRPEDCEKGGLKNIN

- Kd: 0.2 nM
B1: MHGARP8 (antibody, V domains shown)
VH: QVQLKESGPGLVAPSQSLSITCTVSGFSLTGYGINWVRQPPGKGLEWLGMIWSDGSTDYNSVLTSRLRISKDNSNSQVFLKMNSLQVDDTARYYCARDRNYYDYDGAMDYWGQGTSVTVSS
VL: DIQVTQSSSYLSVSLGDRVTITCKASDHIKNWLAWYQQKPGIAPRLLVSGATSLEAGVPSRFSGSGSGKNFTLSITSLQTEDVATYYCQQYWSTPWTFGGGTTLEIR
notes: Mouse monoclonal from hybridoma MHGARP8 (LMBP 10246CB); used biotinylated in flow cytometry; also called MGARPB; antibody of hybridoma LMBP 10246CB
